The record followed here is PMC3722283.

pKd: −log10 of the molar value.

This test has as its target concanavalin A. Nature of the test: SPR. On the technique in general: SPR reads the build-up and loss of mass on a sensor chip optically.
“Man3GlcNAc2-RNase (glycoprotein 3) (from UniProt P61823 27-150) (natural protein)”: the negative-log Kd (pKd) (in general, the Kd on a negative log10 scale, so that one unit is a factor of ten) is 5.60.

“bovine ribonuclease B (native, carrying Man5-9 N-glycans) (from UniProt P61823 27-150) (natural protein)” showed a pKd of 5.92. This pKd is 0.32 log units higher than that of the substance before.

Regarding “monofluoro-Man3GlcNAc2 glycoform of RNase (glycoprotein 2) (from UniProt P61823 27-150) (natural protein)”, the pKd was 5.62.
